# Tested on: T1, biotin-p-CABIN1-L-1 (phosphorylated CABIN1-L-1)
# T1 sequence: AAAMAGFPPEITVTPPTP
# Test: SPR (Biacore T200), biotin-labeled peptide captured on SA chip, His-tagged CNA at 1.25, 2.5, 5 and 10 nM, 25° C.
substance,measurement,value
His-tagged CNA (purified; isoform not stated),fold increase of binding affinity (phosphorylated vs unphosphorylated CABIN1 peptide),3 fold

# From patent US20240376163
